Test results from US20040023255.

Test system: microtubules

Which “Km for microtubule stimulation (coupled PK/LDH microtubule-stimulated ATPase assay, Michaelis-Menten fit)” value does the source give for HsKip3d M1-S357 protein here?
The value was “a Km for microtubule stimulation of 0.2 µM”.
